Paper PMC6817822

Target: PR55α regulatory subunit of PP2A (human (endogenous in CD18/HPAF)) (UniProt P63151)
Experiment: co-IP; PR55α immunoprecipitated with anti-PR55α (2G9) from CD18/HPAF cells stably transduced with empty vector, Flag-YAP or Flag-YAP(5SA); immunoblotted with anti-PR55α (100C1) and anti-Flag (M2)

Sequence of UniProt P63151 (P63151 whole entry): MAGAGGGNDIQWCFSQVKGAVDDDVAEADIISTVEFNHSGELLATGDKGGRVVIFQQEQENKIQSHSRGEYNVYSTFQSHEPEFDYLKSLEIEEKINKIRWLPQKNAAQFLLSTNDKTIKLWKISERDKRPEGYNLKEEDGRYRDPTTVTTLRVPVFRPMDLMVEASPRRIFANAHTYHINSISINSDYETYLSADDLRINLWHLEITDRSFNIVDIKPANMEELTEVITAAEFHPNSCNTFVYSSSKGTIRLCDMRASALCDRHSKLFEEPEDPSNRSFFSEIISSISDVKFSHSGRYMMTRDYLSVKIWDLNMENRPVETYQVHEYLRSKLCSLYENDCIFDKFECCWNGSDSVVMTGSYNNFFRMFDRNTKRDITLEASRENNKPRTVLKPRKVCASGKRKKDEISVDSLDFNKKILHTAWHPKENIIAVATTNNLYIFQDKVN

Question: For Flag-YAP(WT) (natural protein), which fold of the level in the anti-PR55α immunoprecipitates against Flag-YAP(5SA) is on record?
Answer: Its fold of the level in the anti-PR55α immunoprecipitates against Flag-YAP(5SA) is 28 fold.
